Reference: article PMC9917868

Legend:
[1] = molecular target: VAP, endogenous in cultured rat hippocampal neurons (UniProt Q9Z270); assay: GST pulldown with peptide competition, Western blot densitometry (VAP left on GST-NRG2_CD bait; lower signal = stronger competition by the peptide); conditions: lysate of untransduced neurons, n = three independent experiments, parent: est. 0.14, read off a plot, scale: normalized VAP signal
[2] = molecular target: VAP, endogenous in cultured rat hippocampal neurons (UniProt Q9Z270); assay: co-immunoprecipitation (IP: NRG2 (V5)), Western blot densitometry; conditions: AAV-transduced neurons; n = four independent experiments; parent: 1.00; read off a plot
[3] = molecular target: crNRG2 (cleavage-resistant variant of proNRG2) (human) (UniProt O14511); assay: co-IP; co-IP of VAP with crNRG2 from transduced rat hippocampal neurons; neurons untreated (Ctrl), treated 10 min with NMDA (50 µM), or with NMDA and D-AP5 (50 µM); VAP signals normalized to Ctrl = 1

ratio to parent [2]	Substance	further results
	D-WT peptide (wild-type D-box peptide of NRG2) D620K; E622K	response [1]: 0.63
0	V5 epitope-tagged proNRG2 (wild type), expressed in cultured rat hippocampal neurons (from UniProt O14511) S494A; S497A; S502A; T506A; S511A	
0	V5 epitope-tagged proNRG2 (wild type), expressed in cultured rat hippocampal neurons (from UniProt O14511) S494A; S497A; S502A; T506A; S511A; S613A; T625A; T626A	
0.73	V5 epitope-tagged proNRG2 (wild type), expressed in cultured rat hippocampal neurons (from UniProt O14511) S613A; T625A; T626A	
	VAP, endogenous in cultured rat hippocampal neurons (from UniProt Q9Z270 1-249) (natural protein)	normalized VAP co-IP signal after 10 min NMDA 50 µM (Ctrl = 1) (relative to Ctrl = 1) [3]: 0.31; normalized VAP co-IP signal after NMDA with D-AP5 50 µM (Ctrl = 1) (relative to Ctrl = 1) [3]: 1.1
